The record followed here is PMC11602162, “A compact stem-loop DNA aptamer targets a uracil-binding pocket in the SARS-CoV-2 nucleocapsid RNA-binding domain”.

Data set [1] has as its target T1, N-NTD (SARS-CoV-2 (Wuhan-Hu-1), UniProt P0DTC9 46-174). Description: fluorescence anisotropy; 10 mM Tris-HCl pH 7.4, 150 mM NaCl, 1 mM MgCl2; […]; BLI with 0.05% Tween-20; […].
Data set [2] has as its target N-NTD (SARS-CoV-2 (Wuhan-Hu-1), UniProt P0DTC9 46-174). Kind of data set: competition fluorescence anisotropy; probe N11; 10 mM Tris-HCl pH 7.4, 150 mM NaCl, 1 mM MgCl2; FA with 0.1 mg/ml BSA at 25 C; BLI with 0.05% Tween-20; SEC at ambient temperature. Conditions: protein: recombinant, tags: N-terminal 6xHis removed by HRV 3C. On the technique in general: Polarisation of emitted light reports the rotation of a fluorescent probe.

The target in data set [3] is T1, N-NTD. Kind of data set: DSF; 10 mM Tris-HCl pH 7.4, 150 mM NaCl, 1 mM MgCl2; […]; BLI with 0.05% Tween-20; […]. For orientation: Differential scanning fluorimetry follows unfolding on heating by fluorescence.
For data set [4], the target named is T2, N protein full-length (SARS-CoV-2 (Wuhan-Hu-1), UniProt P0DTC9 1-419). Description: fluorescence anisotropy; Hill slope 0.91; 10 mM Tris-HCl pH 7.4, 150 mM NaCl, 1 mM MgCl2; FA with 0.1 mg/ml BSA at 25 C; BLI with 0.05% Tween-20; SEC at ambient temperature. The following applies: protein: recombinant, tags: 6xHis-thioredoxin removed by HRV 3C, chain copies: 2, label: […], 5' biotin in BLI, hairpin, 2 bp stem.

Data set [5] deals with T2, N protein full-length. Description: BLI; immobilized DNA, avidity; 10 mM Tris-HCl pH 7.4, 150 mM NaCl, 1 mM MgCl2; FA with 0.1 mg/ml BSA at 25 C; BLI with 0.05% Tween-20; SEC at ambient temperature. Conditions: protein: recombinant, tags: 6xHis-thioredoxin removed by HRV 3C, chain copies: 2, hairpin. In general terms: BLI is a label-free optical method that tracks binding on a fibre tip over time.

The target of data set [6] is T1, N-NTD. Description: competition fluorescence anisotropy; probe N11; 10 mM Tris-HCl pH 7.4, 150 mM NaCl, 1 mM MgCl2; […]; BLI with 0.05% Tween-20; […].
Data set [7] deals with T1, N-NTD. Kind of data set: competition fluorescence anisotropy; 10 mM Tris-HCl pH 7.4, 150 mM NaCl, 1 mM MgCl2; […]; BLI with 0.05% Tween-20; […].
The target of data set [8] is T2, N protein full-length. Description: fluorescence anisotropy; Hill slope 2.3; 10 mM Tris-HCl pH 7.4, 150 mM NaCl, 1 mM MgCl2; FA with 0.1 mg/ml BSA at 25 C; BLI with 0.05% Tween-20; SEC at ambient temperature. Conditions: protein: recombinant; tags: 6xHis-thioredoxin removed by HRV 3C; chain copies: 2; hairpin.
In data set [9] the target is T1, N-NTD. Kind of data set: fluorescence anisotropy; 1 mM Mg2+; 10 mM Tris-HCl pH 7.4, 150 mM NaCl, 1 mM MgCl2; […]; BLI with 0.05% Tween-20; […].

In the data set with N-NTD [1], TCGGACATCGGATTGTCTGA (ssDNA, fluorescein-dT (i6-FAMK) at position 13 (loop T6)) [A58-20-iT6FAM] had a Kd of 74 nM.
One may read the Ki as a measure of affinity in units of concentration, obtained from inhibition or displacement. Turning to UUUUUUUUUUUUUUU (ssRNA) [poly-rU15], the Ki in the data set with N-NTD [2] came to 7800 nM.
For UCAUGUUAUGGUUGA (structured_RNA) [SL9 RNA], the Ki in the data set with N-NTD [2] (stem-loop) came to 15400 nM.
TCGGACATCGGATTGTCTGA (XNA, 2'-fluoro-dG at position 10 (loop G3)) [A58-20-2'FG3] returned a Kd with N-NTD [1] of 74 nM.
On to TCAGACATCGGATTGTCTGA (ssDNA) [A58-20_nwb1], for which the Kd with N-NTD [1] was determined as 84.9 nM. Further, in the data set with N-NTD [3], the binding signal is 4.5 C (Tm shift).
As for CATCGGATTG (ssDNA) [A58-10], the Kd came to 24.9 nM in the data set with N protein full-length [4] and 3.77 nM with N protein full-length [5] (label: […], 5' biotin in BLI, […], 2 bp stem).

B1: A58 (A58-58) (ssDNA)
DNA: GCTGGATGTCACCGGATTGTCGGACATCGGATTGTCTGAGTCATATGACACATCCAGC
Take B1: in the data set with N-NTD [6], the inhibitory constant (Ki) was determined as 9.92 nM.
In the case of TCGGACATCGGATTGTCCGA (ssDNA) [A58-20_nwb2], the Kd in the data set with N-NTD [1] was 87.9 nM. In the data set with N-NTD [3], the binding signal was 4.5 C (Tm shift).
With UCGGACAUCGGAUUGUCUGA (ssRNA) [A58-20_RNA], the binding signal with N-NTD [3] is -0.5 C (Tm shift). The molecule also registered a Ki with N-NTD [7] of 90800 nM.
Take TCGGACATTTTTTTGTCTGA (ssDNA) [A58-20 TTTTTT]: the binding signal with N-NTD [3] is 0.5 C (Tm shift).
Regarding ATCGGATT (ssDNA) [A58-8], the binding result with N-NTD [6] was “no binding”.
For GUCCCUCAUGUGGGC (structured_RNA) [SL10 RNA], the Ki with N-NTD [2] (stem-loop) was determined as 38700 nM.
On to TCGGACATCGGATTGTCTGA (XNA, 2'-fluoro-dG at position 10 (loop G3); i6-FAMK at position 13 (loop T6)) [A58-20-2'FG3-iT6FAM], for which the Kd with N-NTD [1] was 13.9 nM.
TCGGACATCGGATTGTCTGA (ssDNA) [A58-20]: the Ki in the data set with N-NTD [6] worked out at 50.5 nM. The Kd was determined as 78.2 nM with N protein full-length [8], 101 nM with N-NTD [9] and 0.0101 nM with N protein full-length [5].
For the molecule TTTTTTTTTTTTTTT (ssDNA) [poly-dT15], the Ki with N-NTD [2] amounted to 4120 nM.
